Test [1] addresses T1, SARS-CoV-2 (Wuhan-Hu-1 strain) wild-type RBD, His-tagged (SARS-CoV-2 Wuhan-Hu-1 (MN908947.3), UniProt P0DTC2).
T1 construct: source: HEK293F, transiently transfected, purified (Ni Sepharose); not shown: 8xHis, C-terminal, kept
The test can be described thus: BLI. To be noted: both partners purified.

Test [2] deals with T2, SARS-CoV-2 (Wuhan-Hu-1 strain) wild-type spike RBD-His (SARS-CoV-2 Wuhan-Hu-1 (MN908947.3), UniProt P0DTC2).
T2 construct: source: HEK293F, transfected, purified (Ni Sepharose); not shown: His8, C-terminal, kept
The test is described as follows: BLI. The following applies: both partners purified.

Usually Kd stands for a measure of binding affinity in units of concentration. Low readings indicate a tighter complex, high ones a looser complex. One may read the koff as the first-order rate constant of dissociation. By kon is commonly meant the rate constant with which the complex forms. Read a high kon as fast association.

B1: neutralizing antibody 7F3 (antibody, V domains shown)
VH: EVQLVESGGGLVKPGRSLRLSCTASGFTFGDYAMSWFRQAPGKGLEWVGFIRSKAYGGTTEYAASVKGRFTISRDDSKSIAYLQMNSLKTEDTAVYYCTRDRYARYDILTGLSPAGADYFYYAMDVWGQGTTVTVSS
VL: EIVLTQSPATLSLSPGERATLSCRASQSVSSYLAWYQQKPGQAPRLLIYDASNRATGIPARFSGSGSGTDFTLTISSLEPEDFAVYYCQQRSNWPQYTFGQGTKLEIK
As for B1, in test [1], the Kd is less than 1 pM, the koff was less than 1e-07 s⁻¹ and the on-rate (kon) turned out to be 192000 M⁻¹ s⁻¹.

B2: 7F3 neutralizing antibody (IgG) (antibody, V domains shown)
VH: B1 VH
VL: B1 VL
In test [2], B2 had a Kd of less than 1 pM, a koff of less than 1e-07 s⁻¹ and a kon of 192000 M⁻¹ s⁻¹.

B3: LY-CoV1404 (also known as bebtelovimab) (antibody, V domains shown)
VH: QITLKESGPTLVKPTQTLTLTCTFSGFSLSISGVGVGWLRQPPGKALEWLALIYWDDDKRYSPSLKSRLTISKDTSKNQVVLKMTNIDPVDTATYYCAHHSISTIFDHWGQGTLVTVSS
VL: QSALTQPASVSGSPGQSITISCTATSSDVGDYNYVSWYQQHPGKAPKLMIFEVSDRPSGISNRFSGSKSGNTASLTISGLQAEDEADYYCSSYTTSSAVFGGGTKLTVL
notes: control antibody
In the case of B3, in test [1], the equilibrium dissociation constant (Kd) is less than 1 pM, the koff is less than 1e-07 s⁻¹ and the kon stood at 79100 M⁻¹ s⁻¹.

B4: LY-CoV1404 (bebtelovimab) (antibody, V domains shown)
VH: B3 VH
VL: B3 VL
In test [2], B4 yielded a Kd of less than 1 pM, a koff of less than 1e-07 s⁻¹ and a kon of 79100 M⁻¹ s⁻¹.

The record behind these values is paper PMC11180174 (Nature Communications, 2024).
